From paper PMC12102759

B1: ATXN2 peptide 913-928 (Ataxin-2), 16-mer library wild type / PABPC1 PABC (PABPC1 PABC domain, residues 544-623) (parent)
chain 1: TLNPNAKEFNPRSFSQ
chain 2: PLTASMLASAPPQEQKQMLGERLFPLIQAMHPTLAGKITGMLLEIDNSELLHMLESPESLRSKVDEAVAVLQAHQAKEAA
B2: MXI1 peptide 4-19 (Max-interacting protein 1), 16-mer library wild type / SIN3A PAH2 (SIN3A PAH domain, residues 295-383) (parent)
chain 1: VKMINVQRLLEAAEFL
chain 2: SLQNNQPVEFNHAINYVNKIKNRFQGQPDIYKAFLEILHTYQKEQRNAKEAGGNYTPALTEQEVYAQVARLFKNQEDLLSEFGQFLPDA
B3: PAIP1 peptide 126-141 (Polyadenylate-binding protein-interacting protein 1), 16-mer library wild type / PABPC1 PABC (PABPC1 PABC domain, residues 544-623) (parent)
chain 1: SKLSVNAPEFYPSGYS
chain 2: B1 chain 2

Variants of: B1
Test: proteomic peptide phage display deep mutational scan (ProP-PD DMS): M13 P8 16-mer library selected against immobilised GST-tagged bait for four days (rounds), NGS of the eluted pools per day and pseudo-replica
Details: with PABPC1 PABC (PABPC1 PABC domain, residues 544-623); bait immobilised on MaxiSorp plates (10 µg), library pre-cleared on GST, 2 h binding at 4 °C, five washes; one round per day, days 1-4; value from days 2 and 3; scale: average fractional NGS count over selection days 2 and 3

Screen value: each site, then its substitutions
chain 1 A6: P 0, I 0.000105
chain 1 S15: Y 0.000175, T 2.11e-05, N 0.000264, K 0.00027, L 6.16e-05
chain 1 N10: G 0.000262, V 1.03e-05, K 0.000142, E 2.66e-05
chain 1 P11: I 9.64e-06
chain 1 K7: E 0.000169, M 3.88e-05, R 0.000217
chain 1 F14: D 0.000335, S 8.48e-05, T 0.000127
chain 1 L2: D 0
chain 1 E8: D 0, L 0, I 0.000142
chain 1 P4: E 1.57e-05, Q 0.000331, F 0.000109, Y 0, A 0.000191, W 0, S 0.000147
chain 1 S13: E 0.000117, F 7.96e-05, K 0.000149, M 0.000163, V 0.000423, H 0.00026, I 0
chain 1 F9: A 0, G 0, Y 0.000112, Q 0
chain 1 T1: Q 0.000237, E 0.000115, S 0.000147, W 4.71e-05
chain 1 N3: T 8.32e-05, I 0, H 0, A 0, P 0, K 0
chain 1 N5: Y 0.000372, P 1.03e-05, W 0.000157, S 0.000305

Variants of: B2
Test: as above
Details: with SIN3A PAH2 (SIN3A PAH domain, residues 295-383); bait immobilised on MaxiSorp plates (10 µg), library pre-cleared on GST, 2 h binding at 4 °C, five washes; one round per day, days 1-4; value from days 2 and 3; keep out of graded; scale: average fractional NGS count over selection days 2 and 3

Screen value: each site, then its substitutions
chain 1 N5: T 0.000204, M 0.0011, W 0.00143, G 0.000565, F 0.000135, L 0.00022
chain 1 I4: T 0.000667, A 0, M 0.00797, K 0, G 4.79e-05, N 0.000113, H 0.000141, L 0.00108, V 0.00213, F 0.000274, D 0.00294, W 8.32e-05
chain 1 E14: S 0.00604, Q 0.00119, V 0.0112, N 0.000159, Y 0.00266, R 0.00116, M 0.00144
chain 1 K2: S 0.00272, M 0.000167, L 0.00133, W 0.00198, I 0.00027, Y 0.00178, Q 0.00731, P 0.00116, N 0.00263, R 0.000162, G 0.00453, H 0.00169, V 0.000308
chain 1 F15: Y 0.00011, G 4.24e-05, R 3.85e-05, V 2.36e-05, W 0.000134, I 0, T 9.49e-05, H 2.84e-05, A 0.00102, S 4.3e-05
chain 1 R8: S 0.000529, M 9.12e-05, A 0.000466, L 5.66e-05, W 0.000195, K 0.000316, E 0, I 0.000199, N 0.000431, Q 0.000659, G 0.000403, V 2.88e-05, Y 0.000148
chain 1 M3: N 2.4e-05, D 0.000126, V 0.000204, T 4.82e-05, H 0.000154, R 0, W 8.38e-05, L 0, A 6.73e-05, G 9.82e-05
chain 1 L16: M 3.86e-05, E 7.18e-05, R 0.000122, Q 0.000343, G 5.21e-05, D 5.21e-05, K 7.16e-05, S 9.12e-05, V 7.65e-05, N 8.06e-05, I 0.00145, T 3.79e-05, H 0.000538, A 0.000201
chain 1 Q7: V 0.00118, P 0, W 0.00193, E 0, M 0, L 0.000431, G 0, T 0.000284, S 0.000125
chain 1 V6: T 0, I 0.000142, Q 2.36e-05, S 0, M 0.000299, Y 0.000458
chain 1 L9: N 0, M 0, T 0, I 0.00165, G 0
chain 1 L10: V 0, W 3.85e-05, T 0.000112, A 0

Variants of: B3
Test: as above
Details: with PABPC1 PABC (PABPC1 PABC domain, residues 544-623); bait immobilised on MaxiSorp plates (10 µg), library pre-cleared on GST, 2 h binding at 4 °C, five washes; one round per day, days 1-4; value from days 2 and 3; keep out of graded; scale: average fractional NGS count over selection days 2 and 3

Screen value: each site, then its substitutions
chain 1 N6: V 0.000215, T 0.000385, I 0.000614, H 0.000862, M 0.000149, P 0, L 0.00023, W 0.000917, R 0.000467, G 0.000194, A 0.000611, Y 0.000705, F 0.000327, E 0
chain 1 F10: V 0, D 0, Q 0, Y 0.00206, W 0.0171
chain 1 A7: V 0.000178, L 4.17e-05, M 0.000228, Q 0.00119, T 0.00119, S 0.000407, H 0.000147, P 0.000137, N 0.000551, G 0.000863
chain 1 L3: F 0.000815, P 9.03e-05, I 0.00043, W 0.000852, V 0.000373
chain 1 K2: V 0.000896, H 4.17e-05, I 0, N 0.000212, F 0.000245, A 0.000319, Y 0.000158, G 0.000321, P 0.00022, D 0.000197, W 0.000491
chain 1 S1: I 0.00076, K 0.00037, R 7.1e-05, W 0.000299, P 0.000196, H 0.000214, L 0.00185, A 0.0012, V 0.000196, Y 0.000342, Q 0.000406, N 0.000154, M 0.0011, F 0
chain 1 P12: L 0.00211, I 0.000623, S 0.00133, N 8.81e-05, R 4.76e-05, H 0.00057, F 0.00121, V 5.13e-05, E 0.000484, A 0.00198, Q 0.000152, T 0.000222, M 0.000643, Y 0.00157
chain 1 S4: A 0.00227, V 9.02e-05, E 0.000106, P 0.000535, N 8.32e-05, M 8.55e-05, R 0.000365, Q 0.00694, Y 0.000225, T 0.000487, K 0.000353, D 0, L 0.000589, F 0.000754, G 0.000919
chain 1 G14: I 0.000195, A 0.00104, Q 9.29e-05, V 0.000565, E 0.000246, M 0.000578, Y 0.00125, R 0.000231, P 0.00116, K 0.000153, S 0.000279, T 0.000205
chain 1 Y11: A 0.000962, F 0.000586, H 0.000612, R 0.000552, Q 0.00111, N 0.000309, G 0.000528, I 0.000574, V 0.00109, M 0.00123, D 0.000603, S 0.000332, K 0.000481, T 0.000142, E 0.00111, L 0.00117
chain 1 S13: F 0.000556, Y 0.00035, D 0, M 0.000419, G 4.28e-05, H 0.000367, Q 0, E 0.000161, L 0.000235, N 0.00287, P 0, I 0.000936, V 0.000104
chain 1 E9: V 0.000182, N 0.00191, Y 0.000173, L 0.000721, P 0.000543, Q 0.000332, D 0.000746, R 4.17e-05, H 0.00439, F 0.00034, T 0.00117, S 0.00129, K 0.000266, M 0.00247, I 8.24e-05
chain 1 V5: H 0.000797, K 0.000215, P 0.00187, Y 0, Q 0.00077, G 9.64e-06, N 0.000152, A 0.00035, L 0.000898, M 0.000169, R 0.000262, S 0.00056
chain 1 P8: F 0.000185, M 0.00039, Y 0.0021, S 0.000241, N 0.0134, K 8.32e-05, G 0.000696, I 0.000615, W 0.000763, D 0.000406, R 0.000635, V 0.00064, Q 0.000383, L 0.000643, A 0.000105
